The results in this text go back to patent publication US9539315B2, “Methods, agents and peptides for inhibiting matrix metalloproteinase-2 signaling” (New York University, priority 2011, dated 2017).

“Also recorded” adds a separate entry of the source.

For one experiment, the system named is NF-κB pathway. The experiment in a line: p50 nuclear translocation / NF-κB activation in DCs (ELISA of cytosolic and nuclear fractions). It is filed as cell-based, human. How it is done: A) DCs were exposed to MMP-2 […] or zymosan […], a known activator of NF-κB that acts via TLR2, for the indicated time. Cytosolic and nuclear fractions were isolated and p50 contents were measured by ELISA. […] C) OX40L over-expression on DCs induced by MMP-2 is inhibited by an inhibitor of NEMO, the NEMO binding domain (NBD) peptide, but not by the corresponding negative control, a NBD mutant.
PBMCs were purified from healthy-(HD) or cord blood- (CB) donors and plated at 40×10^6 cells/10 mL/dish in complete IMDM with 5% PHS. Cells were allowed to adhere for 2 h at 37° C. Non-adherent cells were removed. The monocyte-enriched fraction was supplemented with 100 UI/mL rhGMCSF and 300 UI/mL rhIL-4 (R&D Systems) on days 0, 2 and 4. Immature DCs were harvested on day 5 and matured using poly(I:C) at 5 μg/mL/10^6 DCs (Amersham). Secretion of IL-12p70, TNFα, IL-1β, IL-6, IL-8 and IL-10 was assessed on both immature and mature DCs using the Human Inflammatory Cytokine Cytometric Bead Array (BD Pharmingen).
Activation of T cell clones (10,000 cells/100 μL/well), polyclonal T cell populations (100,000 cells/100 μL/well), and DCs (50,000 cells/100 μL/well) can be determined by ELISA. IFNγ (BioSource), TNFα (BioSource), IL-4 (BioSource), IFNβ (VeriKine; PBL interferon source) and MCP-3 (DuoSet; R&D Systems) contents in supernatants were measured according to the manufacturer's instructions. p50 was measured in cytosolic and nuclear fractions (fractions separated using the nuclear separation kit from Active motif) by ELISA (Active motif).

The next experiment has as its target T1, TLR2/MyD88 complex (Homo sapiens, UniProt O60603).
T1 construct: endogenous in cells; host or cells: human monocyte-derived dendritic cells (moDCs); alternatively TLR2-transfected HEK cells
The experiment in a line: Co-immunoprecipitation of MMP-2 and TLR2 from moDCs or TLR2-transfected HEK cells. The note with it: n=3. It is filed as binding. How it is done:
10^6 moDCs/lane or TLR2-transfected HEK cells were incubated for 20 min with or without 5 μg/ml MMP-2 or MMP-9 before being lysed. TLR2 A) and MMP-2 B) were immunoprecipitated using specific antibodies and protein G-agarose. Western blots for MMP-2 (≈70 kD), TLR2 (≈85 kD) and MyD88 (≈35 kD) were then performed. C and D) depict band intensities (mean of 3 independent experiments±s.d.), which are represented as a percentage of the band intensity corresponding to untreated cells. Two-tailed Student's t-tests were used to compare MMP-2- to MMP-9-treated cells. p values≦0.05 (*) were considered statistically significant.
To assess whether MMP-2 directly interacts with TLR2, moDCs and TLR2-transfected HEK cells were utlized. […] Similarly, TLR2 and MyD88 immunoprecipitated (n=3; p<0.05 compared to MMP-9-treated cells) with MMP-2 when moDCs were pre-treated with MMP-2 (FIG. 8B,D).

T1 sequence (O60603 21-784): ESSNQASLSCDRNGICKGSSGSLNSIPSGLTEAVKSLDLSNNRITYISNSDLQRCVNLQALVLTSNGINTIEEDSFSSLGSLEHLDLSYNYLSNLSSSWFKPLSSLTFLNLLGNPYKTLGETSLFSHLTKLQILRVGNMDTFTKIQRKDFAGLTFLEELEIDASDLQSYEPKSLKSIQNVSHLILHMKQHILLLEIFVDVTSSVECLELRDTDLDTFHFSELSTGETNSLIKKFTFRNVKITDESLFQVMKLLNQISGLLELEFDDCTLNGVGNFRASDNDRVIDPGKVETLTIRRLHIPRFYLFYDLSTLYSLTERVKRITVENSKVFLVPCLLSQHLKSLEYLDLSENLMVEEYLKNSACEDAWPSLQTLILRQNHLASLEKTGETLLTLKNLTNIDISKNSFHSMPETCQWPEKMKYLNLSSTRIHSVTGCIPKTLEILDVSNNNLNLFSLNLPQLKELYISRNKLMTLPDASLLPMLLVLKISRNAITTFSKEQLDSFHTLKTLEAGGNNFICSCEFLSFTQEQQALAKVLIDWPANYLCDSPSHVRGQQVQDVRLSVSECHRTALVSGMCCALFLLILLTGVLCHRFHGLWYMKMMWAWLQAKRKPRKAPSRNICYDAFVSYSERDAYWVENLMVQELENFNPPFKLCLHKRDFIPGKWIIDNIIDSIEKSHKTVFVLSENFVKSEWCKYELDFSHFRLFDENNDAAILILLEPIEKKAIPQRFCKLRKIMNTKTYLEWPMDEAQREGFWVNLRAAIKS
T1 sequence (Q99836 whole entry partner): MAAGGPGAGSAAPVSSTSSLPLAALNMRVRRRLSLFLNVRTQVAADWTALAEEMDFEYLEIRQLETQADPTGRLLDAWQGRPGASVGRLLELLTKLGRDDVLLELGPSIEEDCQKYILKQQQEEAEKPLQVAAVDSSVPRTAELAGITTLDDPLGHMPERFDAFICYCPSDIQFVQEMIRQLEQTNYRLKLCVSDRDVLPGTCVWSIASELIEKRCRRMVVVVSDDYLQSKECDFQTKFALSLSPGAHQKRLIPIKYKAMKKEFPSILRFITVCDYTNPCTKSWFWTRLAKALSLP

B1: matrix metalloproteinase-2 (protein)
chain: YNFFPRKPKWDKNQITYRIIGYTPDLDPETVDDAFARAFQVWSDVTPLRFSRIHDGEADIMINFGRWEHGDGYPFDGKDGLLAHAFAPGTGVGGDSHFDDDELWTLGEGQVVRVKYGNADGEYCKFPFLFNGKEYNSCTDTGRSDGFLWCSTTYNFEKDGKYGFCPHEALFTMGGNAEGQPCKFPFRFQGTSYDSCTTEGRTDGYRWCGTTEDYDRDKKYGFCPETAMSTVGGNSEGAPCVFPFTFLGNKYESCTSAGRSDGKMWCATTANYDDDRKWGFCPDQGYSLFLVAAHEFGHAMGLEHSQDPGALMAPIYTYTKNFRLSQDDIKGIQELYGASPDIDLGTGPTPTLGPVTPEICKQDIVFDGIAQIRGEIFFFKDRFIWRTVTPRDKPMGPLLVATFWPELPEKIDAVYEAPQEEKAVFFAGNEYWIYSASTLERGYPKPLTSLGLPPDVQRVDAAFNWSKNKKTYIFAGDKFWRYNEVKKKMDPGFPKLIADAWNAIPDNLDAVVDLQGGGHSYFFKGAYYLKLENQSLKSVKFGSIKSDWLGC
Regarding B1, the “p50 translocation in the nucleus” value in the experiment on NF-κB pathway (DCs exposed to MMP-2 (5 μm/ml) or zymosan (10 μm/ml), p50 by ELISA) is “triggers p50 translocation in the nucleus; also recorded: induce p50 translocation in the nucleus after 30 min”. Moreover, in the experiment on NF-κB pathway (active vs heat-inactivated MMP-2), the “NF-κB activation in DCs” value was “NF-κB activation (FIGS. 2A, 2B and 3) at similar levels”. In addition, in the experiment with TLR2/MyD88 complex (cells pre-treated 20 min with 5 μg/ml MMP-2 (active or inactive) or MMP-9), the “MMP-2 and MyD88 immunoprecipitated with TLR2” value is on record as “immunoprecipitated”. Besides, the “TLR2 and MyD88 immunoprecipitated with MMP-2” value in the experiment with TLR2/MyD88 complex (moDCs pre-treated with MMP-2) is on record as “immunoprecipitated”.
